Here are results for two molecules from patent publication CN113484526A (SHANGHAI MABGEN MEDICINE TECH CO LTD, dated 2021).

Test [1] has as its target Human FcRn Protein, His Tag (ACRO Biosystems, Cat.No.FCN-H52W7) (human) (UniProt P55899). Briefly: competition ELISA against Biotin-IgG on FcRn-His, relative to the reference antibody (SEQ ID NO: 180/181).
In test [2] the target is T1, 人FcRn胞外区-β2M复合物(带His标签的重组蛋白) (human, UniProt P61769 21-119).
T1 construct: also called FcRn抗原; 人FcRn-β2M复合物; not shown: His tag
Description: hybridoma screening: binding ELISA, cell binding and cell blocking.

UniProt P55899, sequence (P55899 24-297 limits assumed, chain 1 of 2): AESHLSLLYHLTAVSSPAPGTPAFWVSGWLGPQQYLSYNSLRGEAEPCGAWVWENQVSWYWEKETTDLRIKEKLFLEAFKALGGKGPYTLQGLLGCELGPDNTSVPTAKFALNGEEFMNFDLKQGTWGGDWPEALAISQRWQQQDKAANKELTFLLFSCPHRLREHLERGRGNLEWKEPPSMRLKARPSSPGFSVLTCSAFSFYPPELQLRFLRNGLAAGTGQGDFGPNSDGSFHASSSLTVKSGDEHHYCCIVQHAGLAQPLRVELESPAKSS
UniProt P55899, sequence (P61769 21-119 limits assumed, chain 2 of 2, further chain): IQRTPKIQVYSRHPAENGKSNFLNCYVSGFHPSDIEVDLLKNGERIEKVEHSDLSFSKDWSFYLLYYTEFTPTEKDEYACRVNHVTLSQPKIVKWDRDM
T1 sequence (chain, as listed by the source limits assumed, chain 1 of 2): as the sequence (P55899 24-297 limits assumed, chain 1 of 2) above
T1 sequence (P61769 21-119 limits assumed, chain 2 of 2): as the sequence (P61769 21-119 limits assumed, chain 2 of 2, further chain) above

In turn, “不针对FcRn靶点的无关抗体(IgG4亚型，迈晋生物自制) (antibody)” came in with a 生物学活性(相对参考品) in test [1] of 0%.

B1: hybri11 (antibody, V domains shown)
VH: QVQLQQPGAELVKPGASVKVSCKASGSTFTSYYMHWVKQRPGQGLEWIGRIHPSNSDSNYNQKFKGKATLTVDKSSSTAYMQLSSLTSEDSAVYYCAMKRDGYYEGFPHWGQGTLVTVSA
VL: DIQMTQSPASQSASLGESVTITCLASQTIGTWLAWYQQKPGKSPQLLIYAATSLADGVPSRFSGSRSGTKFSFKISSLQAEDFVSYYCQQLYSTPYTFGGGTKLEIK
notes: Mouse hybridoma antibody; tested as hybridoma supernatant/purified antibody; also called 阳性克隆hybri11
As to B1, the binding result in test [2] is recorded as “binds”.
